Test results: patent US20240076406A1 (NATIONAL RESEARCH COUNCIL OF CANADA, published 2024)

Columns and labels:
mouse CA-IX [1] = target: T1, mouse CA-IX (mouse, UniProt Q8VHB5 32-390, limits assumed); test: ELISA on purified protein, 500 nM VHH, binding above background
Experimental: Cross reactivity and CA-IX specificity. Binding specificity and species cross reactivity of two sdAb were tested in an ELISA assay using purified proteins for human, mouse, cynomolgus monkey and dog CA-IX.

[2] = target: T2, hCA-IX ECD dimer (dimeric extracellular domain of hCA-IX) (human, UniProt Q16790 38-414); test: SPR; CA-IX immobilized on SA sensor chip, VHH injected
Experimental: (§1) In vitro binding affinity/SPR. To evaluate the binding affinity (KD) of the VHH only format of the 4 single domain antibodies, CA-IX monomer and dimer were immobilized on SA sensor chip (GE Healthcare) and serial dilutions of the sdAbs were injected over the surface (FIG. 3A).

[3] = target: hCA-IX-ECD monomeric (monomeric parental CA-IX extracellular domain) (human, UniProt Q16790 38-414); test: as above
Experimental: as §1

[4] = target: T2, hCA-IX ECD dimer (dimeric extracellular …); test: cell-based or functional assay
human CA-II = human CA-II (human, UniProt P00918 1-260); test: ELISA on purified protein, binding above background
human CA-XIV = target: T3, human CA-XIV (human, UniProt Q9ULX7 16-290, limits assumed); test: as above
T3 construct: also called carbonic anhydrase XIV

human CA-IV = target: T4, human CA-IV (human, UniProt P22748 19-283, limits assumed); test: as above
T4 construct: also called carbonic anhydrase IV

human CA-XII = target: T5, human CA-XII (human, UniProt O43570 25-291, limits assumed); test: as above
T5 construct: also called carbonic anhydrase XII

mouse CA-IX [5] = target: T1, mouse CA-IX; test: as above

T1 sequence (Q8VHB5 32-390 limits assumed): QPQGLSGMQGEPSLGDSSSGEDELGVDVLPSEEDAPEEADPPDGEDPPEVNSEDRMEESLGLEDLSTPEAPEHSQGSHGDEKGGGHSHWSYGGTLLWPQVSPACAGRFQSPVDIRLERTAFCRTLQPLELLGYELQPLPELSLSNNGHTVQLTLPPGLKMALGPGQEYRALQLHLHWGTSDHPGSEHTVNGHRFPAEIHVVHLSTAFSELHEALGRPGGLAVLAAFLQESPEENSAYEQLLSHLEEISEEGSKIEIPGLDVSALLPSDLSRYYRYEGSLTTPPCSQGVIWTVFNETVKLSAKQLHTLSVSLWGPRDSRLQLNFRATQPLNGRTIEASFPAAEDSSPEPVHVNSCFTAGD
T3 sequence (Q9ULX7 16-290 limits assumed): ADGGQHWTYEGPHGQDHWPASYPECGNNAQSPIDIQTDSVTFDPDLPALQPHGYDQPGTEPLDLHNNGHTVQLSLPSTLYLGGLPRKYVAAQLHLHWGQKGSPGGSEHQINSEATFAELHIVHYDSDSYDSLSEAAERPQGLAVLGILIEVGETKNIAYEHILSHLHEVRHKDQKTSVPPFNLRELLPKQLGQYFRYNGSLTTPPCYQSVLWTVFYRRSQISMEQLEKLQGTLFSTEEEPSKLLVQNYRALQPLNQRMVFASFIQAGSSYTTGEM
T5 sequence (O43570 25-291 limits assumed): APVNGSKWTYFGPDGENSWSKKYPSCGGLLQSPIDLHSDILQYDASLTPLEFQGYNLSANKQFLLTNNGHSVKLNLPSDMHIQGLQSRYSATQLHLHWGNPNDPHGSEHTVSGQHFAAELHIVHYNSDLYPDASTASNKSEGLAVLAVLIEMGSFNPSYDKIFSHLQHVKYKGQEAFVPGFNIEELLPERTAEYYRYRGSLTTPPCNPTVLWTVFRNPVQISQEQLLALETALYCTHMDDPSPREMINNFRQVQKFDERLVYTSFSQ
T4 sequence (P22748 19-283 limits assumed): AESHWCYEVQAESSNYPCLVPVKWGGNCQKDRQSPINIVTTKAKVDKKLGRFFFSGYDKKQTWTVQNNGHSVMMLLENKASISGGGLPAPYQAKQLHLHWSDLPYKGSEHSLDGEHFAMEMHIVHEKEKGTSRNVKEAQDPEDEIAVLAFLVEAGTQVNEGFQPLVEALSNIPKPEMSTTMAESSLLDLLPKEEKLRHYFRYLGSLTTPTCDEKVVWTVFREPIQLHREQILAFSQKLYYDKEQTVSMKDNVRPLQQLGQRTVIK

Binder | binding result (mouse CA-IX [1]) | Kd [2] [nM] | Kd [3] [nM] | IC50 (hCA-IX in vitro enzyme activity, 4Mu-Ac hydrolysis) [4] | logIC50 (hCA-IX in vitro enzyme activity, 4Mu-Ac hydrolysis) [4] | binding result (human CA-II) | binding result (human CA-XIV) | binding result (human CA-IV) | binding result (human CA-XII) | binding result (mouse CA-IX [5])
sdCA9-1-VHH (VHH, Llama VHH expressed in E. coli from the pSJF2 vector and purified by IMAC) VHH: QVQLVESGGGLVQAGGSLRLSCAASGFTFDDWAIGWFRQAPGKEREGVSCISKRHGTTHYADSVKGRFTISSDNAKNTVYLRMNGLKPEDTAVYYCAASSWGSCTVATMRDVDRYDYDYWGQGTQVTVSS | binds | 37 | 28.9 | 0.111 µM (unit not printed; the text gives the values in nM) | -0.954 log10 of IC50 (IC50 in µM; unit not printed) | no binding (tested: 500 nM) | no binding (tested: 500 nM) | no binding (tested: 500 nM) | no binding (tested: 500 nM) | –
sdCA9-2-VHH (VHH, Llama VHH expressed in E. coli from the pSJF2 vector and purified by IMAC) VHH: QVKLEESGGDLVQPGGSLRLSCAASGFTLDYYAIGWFRQAPGKEREGVSCFSSVDGSTYYADSVKGRFTISRDNAKNMVYLQMNSLKPEDTAIYYCAAELYGELGVATVQAMCRLTTPGGDYWGQGTQVTVSS | – | 176 | 234 | 0.0484 µM (unit not printed; the text gives the values in nM) | -1.13 log10 of IC50 (IC50 in µM; unit not printed) | no binding (tested: 500 nM) | no binding (tested: 500 nM) | no binding (tested: 500 nM) | no binding (tested: 500 nM) | no binding (tested: 500 nM)
sdCA9-3-VHH (VHH, Llama VHH expressed in E. coli from the pSJF2 vector and purified by IMAC; also called sdCA9-3-VHH-VHH) VHH: QVQLVESGGGLVQAGDSLRLSCAASGGTFSRYGMGWFRQAPGKEREFVAAISGTGLNTYYMDSVKGRFTISRDNAENTVYLQMNSLKPEDTAVYYCARDRGGVEYDYWGQGTQVTVSS | – | 341 | 314 | – | – | – | – | – | – | –
